Results as given in patent publication US20260327304 (published 2026).

T1: human CD3 protein (human)
T1 chain: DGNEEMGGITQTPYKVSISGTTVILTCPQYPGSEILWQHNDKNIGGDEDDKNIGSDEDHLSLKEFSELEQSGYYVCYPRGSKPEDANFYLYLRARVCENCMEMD

T2: cynomolgus monkey CD3 protein (cynomolgus monkey)
T2 chain: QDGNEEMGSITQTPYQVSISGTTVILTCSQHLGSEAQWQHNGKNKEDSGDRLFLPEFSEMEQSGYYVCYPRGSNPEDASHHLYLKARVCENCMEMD

B1: huB1G5-ScFv-2VHH (CD3 arm) (antibody)
chain: EVQLVESGGGLVQPGGSLKLSCAASGFTFSTYAMNWVRQAPGKGLEWVGRIRSKYNNYATYYADSVKDRFTISRDDSKNTLYLQMNSLKTEDTAVYYCTRHGNFGNSYVSWFAYWGQGTTVTVSSGGGGSGGGGSGGGGSQAVVTQEPSLTVSPGGTVTLTCRSSTGAVTTSNYANWVQQKPGQAPRGLIGGTNKRAPGVPARFSGSLLGGKAALTLSGAQPEDEAEYFCALWYSNLWVFGGGTKLTVLG
B2: huB1G5-CD3Fab (CD3 arm) (antibody, V domains shown)
VH: EVQLVESGGGLVQPGGSLKLSCAASGFTFSTYAMNWVRQAPGKGLEWVGRIRSKYNNYATYYADSVKDRFTISRDDSKNTLYLQMNSLKTEDTAVYYCTRHGNFGNSYVSWFAYWGQGTTVTVSS
VL: QAVVTQEPSLTVSPGGTVTLTCRSSTGAVTTSNYANWVQQKPGQAPRGLIGGTNKRAPGVPARFSGSLLGGKAALTLSGAQPEDEAEYFCALWYSNLWVFGGGTKLTVL
B3: huB1G5-CD3-2VHH (CD3 arm) (antibody, V domains shown)
VH: B2 VH
VL: B2 VL
B4: huB1G5-ScFv-2VHH (CD3 arm) (antibody)
chain: B1 chain
modifications: ACRO CDD-C52W4
B5: huB1G5-CD3Fab (CD3 arm) (antibody, V domains shown)
VH: B2 VH
VL: B2 VL
modifications: ACRO CDD-C52W4
B6: huB1G5-CD3-2VHH (CD3 arm) (antibody, V domains shown)
VH: B2 VH
VL: B2 VL
modifications: ACRO CDD-C52W4

Tests used:
human CD3 protein = target: T1, human CD3 protein; assay: BLI
[1] = target: T2, cynomolgus monkey CD3 protein; assay: BLI

Row | Binder | Kd (human CD3 protein) | Kd [1]
1 | B1 | 35.7 nM | 
2 | B2 | 26.3 nM | 
3 | B3 | 22.6 nM | 
4 | B4 |  | 28.2 nM
5 | B5 |  | 6.59 nM
6 | B6 |  | 6.92 nM
